Measurements as given in the DeepSol protein solubility set.

Assay: soluble on expression in E. coli; label from the status in PepcDB or PDB records

Sequence	soluble on expression in E. coli
WSGVMEWQEPRPEPNSRSKRWLPSHVYVNQGEILRTEQWPRKLYMQLIPQQLLTTLVPLFRNSRLVQFHFTKDLETLKSLCRIMDNGFAGCVHFSYKASCEIRVLMLLYSSEKKIFIGLIPHDQGNFVNGIRRVIANQQQVLQRNLEQEQQQRGMGG	not soluble
WSNNYAVDCPQHCDSSECKSSPRCERTVLDDCGCCRVCAAGRGETCYRTVSGMDGMKCGPGLRCQPSNGEDPFGEEFGICKDCPYGTFGMDCRETCNCQSGICDRGTGKCLKFPFFQYSVTKSSNRFVSLTEHDMASGDGNIVREEVVKENAAGSPVMRKWLNPR	soluble
YEQKIRLENRSVAGKWALSQKGFDGKKLMRAYDSPEAAAAALKMQKLTEQYRIDSTPTVIVGGKYRVIFNNGFDGGVHTIKELVAKVREERKRQTPAVQK	not soluble
YFEVNITMSSGLWSQEKVTSPYWEERIFYLLLQECSVTDKQTQKLLKVPKGSIGQYIQDRSVGHSRIPSAKGKKNQIGLKILEQPHAVLFVDEKDVVEINEKFTELLLAITNCEERFSLFKNRNRLSKGLQIDVGCPVKVQLRSGEEKFPGVVRFRGPLLAERTVSGIFFGVELLEEGRGQGFTDGVYQGKQLFQCDEDCGVFVALDKLELIEDDDTALESDYAGPGDTMQVELPPLEINSRVSLKVGETIESGTVIFCDVLPGKESLGYFVGVDMDNPIGNWDGRFDGVQLCSFACVESTILLHINDIIPESVTQERRPPKLAFMSRGVGDKGSSSHNKPKATGSTSDPGNRNRSELFYTLNGSSVDSQPQSKSKNTWYIDEVAEDPAKSLTEISTDFDRSSPPLQPPPVNSLTTENRFHSLPFSLTKMPNTNGSIGHSPLSLSAQSVMEELNTAPVQESPPLAMPPGNSHGLEVGSLAEVKENPPFYGVIRWIGQPPGLNEVLAGLELEDECAGCTDGTFRGTRYFTCALKKALFVKLKSCRPDSRFASLQPVSNQIERCNSLAFGGYLSEVVEENTPPKMEKEGLEIMIGKKKGIQGHYNSCYLDSTLFCLFAFSSVLDTVLLRPKEKNDVEYYSETQELLRTEIVNPLRIYGYVCATKIMKLRKILEKVEAASGFTSEEKDPEEFLNILFHHILRVEPLLKIRSAGQKVQDCYFYQIFMEKNEKVGVPTIQQLLEWSFINSNLKFAEAPSCLIIQMPRFGKDFKLFKKIFPSLELNITDLLEDTPRQCRICGGLAMYECRECYDDPDISAGKIKQFCKTCNTQVHLHPKRLNHKYNPVSLPKDLPDWDWRHGCIPCQNMELFAVLCIETSHYVAFVKYGKDDSAWLFFDSMADRDGGQNGFNIPQVTPCPEVGEYLKMSLEDLHSLDSRRIQGCARRLLCDAYMCMYQSPTMSLYK	soluble
YLLGAFKPACNISITFSDGKNRKQVPMKKENGQTALVPLFHSQDTISGKVCIEPYQGKKVEHNGVKVELLGQIANYSYDSFLLLTTVRELDVPGEIYERKTYPFEFPTVEMPYETYNGVNVRLRYVLKVTVTRGYAGSILEYQELVRNYAPLPDINNSIKMEVGIEDCLHIEFEYNKSKYHLKDVILGKIYFLLVRIKMKNMDLEIRRRESTGAGANTHVETETLAKFELMDGTPVRGESIPVRLFLAPYDLTPTHRNINNKFSVKYYLNLVLVDEEDRRYFKQQEITLYRLKEDASS	soluble
YNPLNSVEDSTNRRDTVLQNMVAAGYIDKNQETKAAEVDMTSQLHDKYEGKISDYRYPSYFDAVVNEAVSKYNLTEEEIVNNGY	not soluble
YQNYGIMAAIDHINALKDLVKRFPKFADLPKIYGGGSYGGYLSLLIAKIAPWYVDGVIDNSGVCLPFLACILGREMNQGEFYFEGSGYRLYCFVYKYWNRNMNSSYYFGDENYLIRAVLNSNHLQIQSNLNKNTIFVSYHSIQDMGAPVQNKIELYKCYQELGYDATLHLIKDEN	not soluble
YQWLPNIGSGEAGADWGLRLTSRDMGKFGLMWLNKGQYNGTKIVGEEWLNELRKSKFYSYEMGYGLHFWQVSNVENGVAAVGIGEQYIVAIPNKNAVIVTTAGNYETRSRPVLTLIQQLSSLL	not soluble
